In article PMC1931592:

B1: Ac-DMQD-CHO (peptide)
peptide: Ac-DMQD-aldehyde
SMILES: CSCC[C@H](NC(=O)[C@H](CC(=O)O)NC(C)=O)C(=O)N[C@@H](CCC(N)=O)C(=O)N[C@H](C=O)CC(=O)O
B2: Ac-DQTD-CHO (peptide)
peptide: Ac-DQTD-aldehyde
SMILES: CC(=O)N[C@@H](CC(=O)O)C(=O)N[C@@H](CCC(N)=O)C(=O)N[C@H](C(=O)N[C@H](C=O)CC(=O)O)[C@@H](C)O

Target: Recombinant human caspase-9 (active) (human) (UniProt P55211)
Assay: enzyme inhibition assay (fluorogenic substrate cleavage); one unit of active recombinant human caspase incubated with various concentrations of peptide inhibitor in 100 mM NaCl, 50 mM HEPES, 10 mM DTT, 1 mM EDTA, 10% glycerol, 0.1% CHAPS, pH 7.4, 37°C, 30 min; then 200 μM substrate (Ac-DEVD-MCA for caspases-3 and -7, Ac-IETD-MCA for caspase-8, Ac-LEHD-MCA for caspase-9); apparent Ki = IC50/(1+[S]/Km)

Sequence of Recombinant human caspase-9 (active) (human) (P55211 whole entry): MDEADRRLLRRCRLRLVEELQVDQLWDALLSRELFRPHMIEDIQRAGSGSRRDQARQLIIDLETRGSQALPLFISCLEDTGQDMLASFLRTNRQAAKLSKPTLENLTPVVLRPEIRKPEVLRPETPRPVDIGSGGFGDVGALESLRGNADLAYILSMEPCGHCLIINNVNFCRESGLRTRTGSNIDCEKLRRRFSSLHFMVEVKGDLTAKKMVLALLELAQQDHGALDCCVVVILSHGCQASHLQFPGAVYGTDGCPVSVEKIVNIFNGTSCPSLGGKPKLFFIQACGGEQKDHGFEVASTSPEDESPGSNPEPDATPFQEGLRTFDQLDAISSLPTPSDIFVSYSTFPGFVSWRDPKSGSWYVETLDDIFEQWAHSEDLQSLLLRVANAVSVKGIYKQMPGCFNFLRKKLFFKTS

| Binder | Ki [nM] |
| --- | --- |
| B1 | > 200 |
| B2 | 14.5 |
